Data taken from publication PMC10290134, “Development of a one-shot dual aptamer-based fluorescence nanosensor for rapid, sensitive, and label-free detection of periostin”.

T1: Periostin (UniProt Q15063 496-836)
T1 sequence: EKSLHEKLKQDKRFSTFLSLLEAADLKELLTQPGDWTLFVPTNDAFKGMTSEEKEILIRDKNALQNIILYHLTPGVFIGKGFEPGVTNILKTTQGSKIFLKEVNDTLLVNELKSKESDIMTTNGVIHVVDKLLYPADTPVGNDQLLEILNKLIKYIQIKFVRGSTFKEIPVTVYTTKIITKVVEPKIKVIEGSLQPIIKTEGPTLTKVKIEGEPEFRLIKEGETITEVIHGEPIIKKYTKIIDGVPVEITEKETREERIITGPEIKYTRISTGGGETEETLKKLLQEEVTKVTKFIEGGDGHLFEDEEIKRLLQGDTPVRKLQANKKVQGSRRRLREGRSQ

B1: PL5 (ssDNA)
DNA: CACCTAATACGACTCACTATAGCGGATCCGATTCGAACCAGAATATTAGTCGCAAAATCTTGATGCAGTCACTGGCTCGAACAAGCTTGC
B2: PL5trunc (ssDNA)
DNA: TAATACGACTCACTATAGCGGATCCGATTCGAACCAGAATATTAGTCGCAAAATCTTGATG
B3: PL2 (ssDNA)
DNA: CACCTAATACGACTCACTATAGCGGATCCGAAAGTCAACGCCAGATAAAAACAATTTGCCTTCCTCCGCCCCTGGCTCGAACAAGCTTGC

Each binder was assayed against T1, Periostin (assay: magnetic bead fluorescence assay; 5 mM Mg2+; 20 mM Tris-HCl pH 8.0, 100 mM NaCl, 5 mM KCl, 5 mM MgCl2, 0.05% Tween 20, 25 °C, 1 h; His-tagged periostin on His-tag magnetic beads). Conditions: protein: recombinant; tags: 6xHis (pET-28a); label: 5' Cy3.
TCAACGCCAGATAAAAACAATTTGCCTTCCTCCGCCCCTGGCTCGAA (ssDNA) [PL2trunc] showed a Kd of 10.1 nM. B1 gave a Kd of 50.1 nM. B2 was tested, and the Kd was 37 nM. Binder B3 has a Kd of 45.7 nM.
